Measured values reported in US20160032014A1 (Amgen, published 2016).
Where a chain is given by its changes, count along the chain named. Names may count otherwise.

B1: SS-13991 (antibody, V domains shown)
VH: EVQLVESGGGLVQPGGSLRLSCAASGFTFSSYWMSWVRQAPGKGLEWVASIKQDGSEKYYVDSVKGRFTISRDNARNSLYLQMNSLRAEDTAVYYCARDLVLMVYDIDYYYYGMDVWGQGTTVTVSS
VL: DIVMTQSPLSLPVTPGEPASISCRSSQSLLHSNGHNYLDWYLQKPGQSPQLLIYLGLNRAHGVPDRFSGSGSGTDFTLKISRVEAEDVGVYYCMQALQTPLTFGGGTKVEIKR
notes: HC WT, LC Tyr38(35)His, Ser68(57)Leu, Ser72(61)His; also called A02
B2: SS-13993 (antibody, V domains shown)
VH: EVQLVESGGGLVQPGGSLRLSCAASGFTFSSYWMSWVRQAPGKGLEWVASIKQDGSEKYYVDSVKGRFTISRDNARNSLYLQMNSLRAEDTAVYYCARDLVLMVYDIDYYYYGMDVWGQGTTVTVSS
VL: B1 VL with H61S, S72H
notes: HC WT, LC Tyr38(35)His, Ser68(57)Leu, Ser83(72)His; also called C02
B3: SS-15195 (antibody, V domains shown)
VH: not shown
VL: B1 VL
notes: HC I107M, LC Y35H, S57L, S61H
B4: SS-15497 (antibody, V domains shown)
VH: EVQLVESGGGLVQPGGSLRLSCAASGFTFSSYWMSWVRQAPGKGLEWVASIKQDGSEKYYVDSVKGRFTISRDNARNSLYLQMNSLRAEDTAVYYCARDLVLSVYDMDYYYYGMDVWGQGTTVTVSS
VL: DIVMTQSPLSLPVTPGEPASISCRSSQSLLHSGNGYNYLDWYLQKPGQSPQLLIYLGLNRASGVPDRFSGSGSGTDFTLKISRVEAEDVGVYYCMQAIHTPLTFGGGTKVEIKR
notes: HC VH6 (M103S, I107M), LC G33 insertion, S57L, L97I, Q98H
B5: SS-15519 (antibody, V domains shown)
VH: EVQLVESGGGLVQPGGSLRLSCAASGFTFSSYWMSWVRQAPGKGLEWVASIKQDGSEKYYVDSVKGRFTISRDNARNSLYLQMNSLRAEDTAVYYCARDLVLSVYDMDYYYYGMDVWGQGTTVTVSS
VL: B4 VL with L58W
notes: HC VH6, LC G33, S57W, L97I, Q98H
B6: SS-15516 (antibody, V domains shown)
VH: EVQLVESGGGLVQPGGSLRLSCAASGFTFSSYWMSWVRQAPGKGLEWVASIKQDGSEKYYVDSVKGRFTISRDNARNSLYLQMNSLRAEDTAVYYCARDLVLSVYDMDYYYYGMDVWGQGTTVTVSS
VL: B4 VL with L58F
notes: HC VH6, LC G33, S57F, L97I, Q98H
B7: SS-15518 (antibody, V domains shown)
VH: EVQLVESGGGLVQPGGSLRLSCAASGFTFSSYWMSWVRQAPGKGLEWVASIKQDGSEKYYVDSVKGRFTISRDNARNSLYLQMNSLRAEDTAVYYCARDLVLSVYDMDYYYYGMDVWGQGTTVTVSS
VL: B4 VL with L58N
notes: HC VH6, LC G33, S57N, L97I, Q98H
B8: SS-15520 (antibody, V domains shown)
VH: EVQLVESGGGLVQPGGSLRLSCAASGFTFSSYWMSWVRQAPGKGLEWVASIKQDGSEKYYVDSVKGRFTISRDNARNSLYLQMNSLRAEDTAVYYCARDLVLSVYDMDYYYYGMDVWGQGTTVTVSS
VL: B4 VL with L58Q
notes: HC VH6, LC G33, S57Q, L97I, Q98H
B9: SS-15515 (antibody, V domains shown)
VH: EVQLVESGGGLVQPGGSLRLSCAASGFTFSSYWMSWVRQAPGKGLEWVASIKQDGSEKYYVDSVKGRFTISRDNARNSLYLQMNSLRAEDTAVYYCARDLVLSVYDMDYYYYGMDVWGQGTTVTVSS
VL: B4 VL with L58M
notes: HC VH6, LC G33, S57M, L97I, Q98H
B10: SS-14894 (antibody, V domains shown)
VH: not shown
VL: B4 VL with I98L, H99Q
notes: HC I107M, LC G33, S57L
B11: 8A3 variant HC I107M / LC N33Y, Y35H, S57L, S61H (antibody, V domains shown)
VH: not shown
VL: B1 VL with N33Y
B12: 8A3 variant HC WT / LC N33Y, Y35H, S57L, S61H (antibody, V domains shown)
VH: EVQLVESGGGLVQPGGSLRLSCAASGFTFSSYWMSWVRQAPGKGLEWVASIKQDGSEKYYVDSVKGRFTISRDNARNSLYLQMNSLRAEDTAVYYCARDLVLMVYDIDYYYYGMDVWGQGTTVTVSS
VL: B1 VL with N33Y
B13: SS-15508 (antibody, V domains shown)
VH: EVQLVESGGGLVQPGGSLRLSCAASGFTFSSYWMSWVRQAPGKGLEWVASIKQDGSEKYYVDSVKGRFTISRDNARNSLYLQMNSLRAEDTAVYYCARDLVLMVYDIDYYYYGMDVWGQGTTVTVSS
VL: B1 VL with N33F
notes: HC WT, LC N33F, Y35H, S57L, S61H
B14: SS-15506 (antibody, V domains shown)
VH: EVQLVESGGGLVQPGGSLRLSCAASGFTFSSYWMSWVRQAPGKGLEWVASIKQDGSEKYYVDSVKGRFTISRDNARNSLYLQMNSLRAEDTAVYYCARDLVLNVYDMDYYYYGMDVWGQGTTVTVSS
VL: B1 VL
notes: HC M103N/I107M, LC Y35H, S57L, S61H
B15: 8A3 variant HC M103N/I107M / LC N33Y, Y35H, S57L, S61H (antibody, V domains shown)
VH: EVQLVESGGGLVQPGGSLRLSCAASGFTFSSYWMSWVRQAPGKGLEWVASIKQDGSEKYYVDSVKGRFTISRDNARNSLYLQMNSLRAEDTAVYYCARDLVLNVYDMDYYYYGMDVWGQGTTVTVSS
VL: B1 VL with N33Y
B16: SS-15501 (antibody, V domains shown)
VH: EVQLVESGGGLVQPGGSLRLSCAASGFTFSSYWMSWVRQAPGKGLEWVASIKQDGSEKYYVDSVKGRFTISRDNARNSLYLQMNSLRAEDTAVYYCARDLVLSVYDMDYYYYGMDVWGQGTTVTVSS
VL: B1 VL with N33F
B17: SS-15495 (antibody, V domains shown)
VH: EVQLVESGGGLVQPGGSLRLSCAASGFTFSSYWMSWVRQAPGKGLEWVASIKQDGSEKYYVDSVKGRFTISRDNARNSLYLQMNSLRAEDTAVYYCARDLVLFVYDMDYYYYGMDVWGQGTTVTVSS
VL: B1 VL with N33F
notes: HC M103F/I107M, LC N33F, Y35H, S57L, S61H
B18: 8A3 variant HC M103F/I107M / LC N33Y, Y35H, S57L, S61H (antibody, V domains shown)
VH: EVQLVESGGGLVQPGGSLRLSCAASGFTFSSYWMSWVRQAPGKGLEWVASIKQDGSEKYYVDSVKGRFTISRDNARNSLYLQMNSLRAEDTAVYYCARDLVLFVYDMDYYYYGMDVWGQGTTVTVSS
VL: B1 VL with N33Y
B19: 8A3 variant HC M103S/I107M / LC N33Y, Y35H, S57L, S61H (antibody, V domains shown)
VH: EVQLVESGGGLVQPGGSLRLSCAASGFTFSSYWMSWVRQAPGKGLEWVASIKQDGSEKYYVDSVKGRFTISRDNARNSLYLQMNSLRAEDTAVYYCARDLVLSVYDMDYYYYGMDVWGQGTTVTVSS
VL: B1 VL with N33Y
B20: SS-15496 (antibody, V domains shown)
VH: not shown
VL: B1 VL with N33F
notes: HC I107M, LC N33F, Y35H, S57L, S61H
B21: SS-15504 (antibody, V domains shown)
VH: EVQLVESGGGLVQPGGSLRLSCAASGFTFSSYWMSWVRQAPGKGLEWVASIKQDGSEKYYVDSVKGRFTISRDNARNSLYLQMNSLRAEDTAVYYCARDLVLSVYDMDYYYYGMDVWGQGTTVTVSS
VL: B1 VL
notes: HC M103S/I107M, LC Y35H, S57L, S61H
B22: SS-15505 (antibody, V domains shown)
VH: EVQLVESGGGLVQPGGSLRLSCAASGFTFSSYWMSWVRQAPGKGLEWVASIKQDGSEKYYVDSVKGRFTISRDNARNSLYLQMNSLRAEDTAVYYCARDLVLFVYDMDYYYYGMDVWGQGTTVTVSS
VL: B1 VL
notes: HC M103F/I107M, LC Y35H, S57L, S61H
B23: SS-15500 (antibody, V domains shown)
VH: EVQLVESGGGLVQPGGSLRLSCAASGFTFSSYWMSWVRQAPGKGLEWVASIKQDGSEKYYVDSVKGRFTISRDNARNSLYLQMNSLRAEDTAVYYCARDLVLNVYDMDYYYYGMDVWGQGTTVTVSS
VL: B1 VL with N33Y
B24: SS-15499 (antibody, V domains shown)
VH: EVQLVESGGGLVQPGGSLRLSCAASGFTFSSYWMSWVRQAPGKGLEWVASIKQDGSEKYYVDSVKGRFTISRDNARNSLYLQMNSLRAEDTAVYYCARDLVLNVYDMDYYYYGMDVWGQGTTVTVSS
VL: B4 VL
notes: No entry of its own
B25: SS-15498 (antibody, V domains shown)
VH: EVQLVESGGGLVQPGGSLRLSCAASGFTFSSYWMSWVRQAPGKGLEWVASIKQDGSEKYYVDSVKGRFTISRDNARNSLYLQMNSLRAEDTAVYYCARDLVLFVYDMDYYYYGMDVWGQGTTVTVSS
VL: B4 VL
notes: No entry of its own

What follows are binders tested against T1, human PCSK9 (self-cleaved, mature, secreted PCSK9 comprising amino acids 31 to 692 of SEQ ID NO: 2) (human, UniProt Q8NBP7 31-692, biotinylated in the ELISAs) (assay: solution equilibrium, BIAcore, pH 5.5).
T1 construct: Limits 31-692 are stated for the immunogen; the assays only say human PCSK9; also called huPCSK9; rhu PCSK9
Work on B1 yielded a Kd of 2.8 nM. B2 gave a Kd of 2.8 nM. B3 was tested, and the Kd was 0.45 nM. Binder B4 has a Kd of 0.68 nM. Work on B5 yielded a Kd of 0.86 nM. Work on B6 yielded a Kd of 1 nM. With B7 the Kd was 1.2 nM. In the case of B8, the Kd is reported as 1.2 nM. In the case of B9, the Kd is reported as 1.5 nM. Work on B10 yielded a Kd of 1.5 nM.

These binders were tested against T1, human PCSK9 (self-cleaved, mature, …) (assay: SPR pH 7.4).
Binder B11 has a Kd of 0.572 nM, a koff of 0.000326 s⁻¹ and a kon of 570000 M⁻¹ s⁻¹. With B12 the Kd was 2.81 nM, the koff was 0.00115 s⁻¹ and the kon was 410000 M⁻¹ s⁻¹. Binder B13 has a Kd of 1.57 nM, a koff of 0.00092 s⁻¹ and a kon of 585000 M⁻¹ s⁻¹. Binder B3 has a Kd of 0.0611 nM, a koff of 1.98e-05 s⁻¹ and a kon of 325000 M⁻¹ s⁻¹. Work on B14 yielded a Kd of 0.245 nM, a koff of 5.89e-05 s⁻¹ and a kon of 240000 M⁻¹ s⁻¹. In the case of B15, the Kd is reported as 0.819 nM, the koff is reported as 0.000425 s⁻¹ and the kon is reported as 519000 M⁻¹ s⁻¹. In the case of B16, the Kd is reported as 0.804 nM, the koff is reported as 0.000578 s⁻¹ and the kon is reported as 719000 M⁻¹ s⁻¹. Work on B17 yielded a Kd of 0.285 nM, a koff of 0.000152 s⁻¹ and a kon of 534000 M⁻¹ s⁻¹. With B18 the Kd was 0.528 nM, the koff was 0.000253 s⁻¹ and the kon was 480000 M⁻¹ s⁻¹. B19 was tested, and the Kd was 1.28 nM, the koff was 0.000758 s⁻¹ and the kon was 594000 M⁻¹ s⁻¹. B20 showed a Kd of 0.292 nM, a koff of 0.000194 s⁻¹ and a kon of 665000 M⁻¹ s⁻¹. Binder B21 has a Kd of 0.232 nM, a koff of 8.26e-05 s⁻¹ and a kon of 356000 M⁻¹ s⁻¹. With B22 the Kd was 0.0763 nM, the koff was 1.98e-05 s⁻¹ and the kon was 260000 M⁻¹ s⁻¹. Work on B23 yielded a Kd of 0.459 nM, a koff of 0.000304 s⁻¹ and a kon of 663000 M⁻¹ s⁻¹. Binder B4 has a Kd of 0.249 nM, a koff of 9.47e-05 s⁻¹ and a kon of 381000 M⁻¹ s⁻¹. B24 gave a Kd of 0.199 nM, a koff of 5.98e-05 s⁻¹ and a kon of 301000 M⁻¹ s⁻¹. Work on B25 yielded a Kd of 0.123 nM, a koff of 4.14e-05 s⁻¹ and a kon of 335000 M⁻¹ s⁻¹.

Biological target: T1, human PCSK9 (self-cleaved, mature, …)
Experiment: SPR pH 7.4
Remark: another data set of the same source
For B11, the Kd was 0.572 nM, the koff was 0.000326 s⁻¹ and the kon was 570000 M⁻¹ s⁻¹. Binder B12 has a Kd of 2.81 nM, a koff of 0.00115 s⁻¹ and a kon of 410000 M⁻¹ s⁻¹. B13 was tested, and the Kd was 1.57 nM, the koff was 0.00092 s⁻¹ and the kon was 585000 M⁻¹ s⁻¹. B3 was tested, and the Kd was 0.0611 nM, the koff was 1.98e-05 s⁻¹ and the kon was 325000 M⁻¹ s⁻¹. In the case of B14, the Kd is reported as 0.245 nM, the koff is reported as 5.89e-05 s⁻¹ and the kon is reported as 240000 M⁻¹ s⁻¹. B15 showed a Kd of 0.819 nM, a koff of 0.000425 s⁻¹ and a kon of 519000 M⁻¹ s⁻¹. Binder B16 has a Kd of 0.804 nM, a koff of 0.000578 s⁻¹ and a kon of 719000 M⁻¹ s⁻¹. B17 gave a Kd of 0.285 nM, a koff of 0.000152 s⁻¹ and a kon of 534000 M⁻¹ s⁻¹. B18 was tested, and the Kd was 0.528 nM, the koff was 0.000253 s⁻¹ and the kon was 480000 M⁻¹ s⁻¹. Work on B19 yielded a Kd of 1.28 nM, a koff of 0.000758 s⁻¹ and a kon of 594000 M⁻¹ s⁻¹. B20 gave a Kd of 0.292 nM, a koff of 0.000194 s⁻¹ and a kon of 665000 M⁻¹ s⁻¹. For B21, the Kd was 0.232 nM, the koff was 8.26e-05 s⁻¹ and the kon was 356000 M⁻¹ s⁻¹. B22 gave a Kd of 0.0763 nM, a koff of 1.98e-05 s⁻¹ and a kon of 260000 M⁻¹ s⁻¹. B23 showed a Kd of 0.459 nM, a koff of 0.000304 s⁻¹ and a kon of 663000 M⁻¹ s⁻¹. With B4 the Kd was 0.249 nM, the koff was 9.47e-05 s⁻¹ and the kon was 381000 M⁻¹ s⁻¹. Work on B24 yielded a Kd of 0.199 nM, a koff of 5.98e-05 s⁻¹ and a kon of 301000 M⁻¹ s⁻¹. For B25, the Kd was 0.123 nM, the koff was 4.14e-05 s⁻¹ and the kon was 335000 M⁻¹ s⁻¹.

Each binder was assayed against T1, human PCSK9 (self-cleaved, mature, …) (assay: solution equilibrium, BIAcore).
With B1 the “KD ratio pH 5.5/pH 7.4” value was 9.7. B2 was tested, and the “KD ratio pH 5.5/pH 7.4” value was 12.2. With B3 the “KD ratio pH 5.5/pH 7.4” value was 12.9. With B4 the “KD ratio pH 5.5/pH 7.4” value was 8.1. In the case of B5, the “KD ratio pH 5.5/pH 7.4” value is reported as 10.4. For B6, the “KD ratio pH 5.5/pH 7.4” value was 8.3. For B7, the “KD ratio pH 5.5/pH 7.4” value was 8.6. In the case of B8, the “KD ratio pH 5.5/pH 7.4” value is reported as 7.1. For B9, the “KD ratio pH 5.5/pH 7.4” value was 12.5. In the case of B10, the “KD ratio pH 5.5/pH 7.4” value is reported as 8.8.

These binders were tested against T1, human PCSK9 (self-cleaved, mature, …) (assay: solution equilibrium, BIAcore, pH 7.4).
B1 gave a Kd of 0.29 nM. B2 was tested, and the Kd was 0.23 nM. Work on B3 yielded a Kd of 0.035 nM. For B4, the Kd was 0.084 nM. B5 showed a Kd of 0.083 nM. Work on B6 yielded a Kd of 0.12 nM. Work on B7 yielded a Kd of 0.14 nM. Binder B8 has a Kd of 0.17 nM. Binder B9 has a Kd of 0.12 nM. In the case of B10, the Kd is reported as 0.17 nM.
